Patent US20190127447A1 (Ablynx, published 2019)

Molecular target: RSV F protein of the hRSV Memphis 37 strain (human respiratory syncytial virus …)
Assay: cell-based or functional assay

B1: SEQ ID NO: 71 (VHH)
chain: DVQLVESGGGLVQAGGSLSISCAASGGSLSNYVLGWFRQAPGKEREFVAAINWRGDITIGPPNVEGRFTISRDNAKNTGYLQMNSLAPDDTAVYYCGAGTPLNPGAYIYDWSYDYWGRGTQVTVSSGGGGSGGGGSGGGGSEVQLVESGGGLVQAGGSLSISCAASGGSLSNYVLGWFRQAPGKEREFVAAINWRGDITIGPPNVEGRFTISRDNAKNTGYLQMNSLAPDDTAVYYCGAGTPLNPGAYIYDWSYDYWGRGTQVTVSSGGGGSGGGGSGGGGSEVQLVESGGGLVQAGGSLSISCAASGGSLSNYVLGWFRQAPGKEREFVAAINWRGDITIGPPNVEGRFTISRDNAKNTGYLQMNSLAPDDTAVYYCGAGTPLNPGAYIYDWSYDYWGRGTQVTVSS
  sensitivity in in vitro neutralization assays relative to RSV-B 18537: 6 fold
